Source: IntAct's records for PubMed 29769717

Molecular target: srrt_arath SE (UniProt Q9ZVD0)
Chain of UniProt Q9ZVD0 (Q9ZVD0 whole entry): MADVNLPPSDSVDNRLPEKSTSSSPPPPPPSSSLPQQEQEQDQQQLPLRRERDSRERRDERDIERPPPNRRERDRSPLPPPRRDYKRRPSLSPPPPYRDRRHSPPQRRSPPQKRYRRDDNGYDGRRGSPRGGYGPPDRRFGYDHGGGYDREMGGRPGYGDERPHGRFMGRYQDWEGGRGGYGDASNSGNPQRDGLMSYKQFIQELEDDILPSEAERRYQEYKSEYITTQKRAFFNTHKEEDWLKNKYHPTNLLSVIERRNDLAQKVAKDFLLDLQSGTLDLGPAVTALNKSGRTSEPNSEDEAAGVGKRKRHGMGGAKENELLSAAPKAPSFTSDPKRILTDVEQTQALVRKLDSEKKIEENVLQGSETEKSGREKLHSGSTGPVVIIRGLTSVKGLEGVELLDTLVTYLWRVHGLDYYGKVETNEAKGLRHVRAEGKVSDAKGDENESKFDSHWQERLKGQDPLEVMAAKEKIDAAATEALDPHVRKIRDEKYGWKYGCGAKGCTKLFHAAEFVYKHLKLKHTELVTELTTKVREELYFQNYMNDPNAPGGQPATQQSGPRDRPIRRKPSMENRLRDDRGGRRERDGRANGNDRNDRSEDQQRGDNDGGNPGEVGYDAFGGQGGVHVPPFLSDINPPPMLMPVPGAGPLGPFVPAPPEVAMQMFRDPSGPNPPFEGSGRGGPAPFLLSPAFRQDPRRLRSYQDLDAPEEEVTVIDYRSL

effect of a mutation on the interaction: disrupting interaction
Substance: ATP-dependent helicase BRM (Arabidopsis thaliana (Mouse-ear cress)), Q6EVK6 E1747A
